Reference: article PMC6101577

Molecular target: T1, recombinant human SFPQ/PSF (human), P23246
T1 chain: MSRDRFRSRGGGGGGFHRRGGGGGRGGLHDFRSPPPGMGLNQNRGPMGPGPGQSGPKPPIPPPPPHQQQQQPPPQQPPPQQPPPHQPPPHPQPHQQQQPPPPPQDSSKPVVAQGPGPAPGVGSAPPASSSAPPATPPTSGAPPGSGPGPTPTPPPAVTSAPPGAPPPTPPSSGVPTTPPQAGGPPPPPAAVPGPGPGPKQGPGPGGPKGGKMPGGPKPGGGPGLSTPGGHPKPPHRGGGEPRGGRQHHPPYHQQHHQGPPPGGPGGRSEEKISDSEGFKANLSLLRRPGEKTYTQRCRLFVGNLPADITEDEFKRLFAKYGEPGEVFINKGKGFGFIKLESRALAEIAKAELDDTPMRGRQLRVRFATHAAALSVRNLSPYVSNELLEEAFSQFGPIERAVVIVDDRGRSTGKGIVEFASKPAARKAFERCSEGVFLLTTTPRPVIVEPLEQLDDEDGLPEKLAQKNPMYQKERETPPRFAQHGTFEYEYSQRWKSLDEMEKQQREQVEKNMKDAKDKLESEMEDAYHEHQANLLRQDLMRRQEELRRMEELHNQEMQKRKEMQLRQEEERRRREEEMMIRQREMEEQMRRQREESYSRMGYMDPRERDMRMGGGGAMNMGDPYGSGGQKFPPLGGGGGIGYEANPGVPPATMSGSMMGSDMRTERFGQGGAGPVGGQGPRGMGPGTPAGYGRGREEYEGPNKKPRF
Test: SEC
Settings: remark: other sources report otherwise

stoichiometry N: 2
B1: recombinant human SFPQ/PSF, P23246 1-707 (natural protein)
chain: T1 chain
